Laboratory results taken from PMC8836581, “A Microplate-Based Approach to Map Interactions between TDP-43 and α-Synuclein” (Journal of Clinical Medicine, 2022).

Assays:
[1] = molecular target: full length recombinant alpha synuclein (UniProt P37840 1-140); assay: ELISA; synthetic peptides (5 µg/mL in PBS, 10 mM EDTA) coupled through cysteine to maleimide-activated microplate wells, blocked with L-cysteine; 0.1 µg/mL recombinant protein added 1 h at 37 °C; biotinylated detection antibody, streptavidin-HRP, TMB, absorbance at 450 nm; details: both partners purified
[2] = molecular target: T1, full length recombinant TDP-43 (UniProt Q13148 1-414); assay: as above; details: both partners purified
T1 construct: Called monomeric in the conventional ELISA; also called full-length TDP-43; source: recombinant
T1 sequence (Q13148 whole entry): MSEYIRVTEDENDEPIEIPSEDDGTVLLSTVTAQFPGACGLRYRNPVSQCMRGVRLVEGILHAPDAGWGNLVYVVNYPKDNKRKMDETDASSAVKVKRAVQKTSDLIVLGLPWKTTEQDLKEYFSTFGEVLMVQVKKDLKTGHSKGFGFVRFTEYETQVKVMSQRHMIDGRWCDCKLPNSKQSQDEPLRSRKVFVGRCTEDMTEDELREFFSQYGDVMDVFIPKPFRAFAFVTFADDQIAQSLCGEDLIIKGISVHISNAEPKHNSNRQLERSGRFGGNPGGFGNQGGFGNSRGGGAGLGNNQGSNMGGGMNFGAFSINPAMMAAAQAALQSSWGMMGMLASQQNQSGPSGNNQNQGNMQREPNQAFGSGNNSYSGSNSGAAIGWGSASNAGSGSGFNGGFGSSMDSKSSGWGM

| Binder | binding result [1] | binding result [2] |
| --- | --- | --- |
| GMNFGAFSINPAMMAAAQAA (That this stretch has no internal cysteine is my surmise; source: synthetic peptide (Lugen Sci Co., Ltd.)) [TDP-43 peptide 17 (aa 310–329)] | binds | – |
| SNMGGGMNFGAFSINPAMM (source: synthetic peptide (Lugen Sci Co., Ltd.)) [TDP-43 overlapping peptide aa 305–323] | binds | – |
| EQVTNVGGAVVTGVTA (peptide, UniProt P37840 61-76, looked up, alpha synuclein residues 61-76, start of the non-amyloid β component (NAC); also called first 16 residues of the NAC; first 15 residues of the NAC region; source: synthetic peptide (Lugen Sci Co., Ltd.)) [α-synuclein peptide, amino acids 61–76] | – | binds |
